According to US20080206139A1, “DELIVERY SYSTEM FOR DIAGNOSTIC AND THERAPEUTIC AGENTS” (The Penn State Research Foundation, priority 2006, published 2008):

Columns and labels:
[1] = test system: U251 glioma cells; test: Flow cytometry of intracellular doxorubicin fluorescence, with or without Pgp inhibitor cyclosporine A; assay type: cell-based, Human; settings: 20 μM drug, 2 h
Protocol: Flow cytometry: Flow cytometry was used to measure total intracellular doxorubicin fluorescence. In this report we refer to fluorescence intensity as intracellular drug content. 1×10^6 cells were exposed to 20 μM of drug as (a) free DXR (b) DXR encapsulated IL13 conjugated liposomes (c) DXR encapsulated unconjugated liposomes for 2 h. All drug treatments and post treatment incubations were performed in complete growth medium. The cells were washed to remove any free adherent DXR using PBS and centrifuged. Cells were released from tissue culture dishes with 0.05% trypsin/0.02% EDTA followed by PBS washing (centrifugation, 5 min 500 g) and resuspended in PBS for flow cytometry assay. The intracellular accumulation of inherently fluorescent doxorubicin was evaluated using a fluorescence activated cell analyzer. A single 15 mW argon ion laser beam (488 nm) was used to excite the fluorescence of DXR. A total of 10000 cells were analyzed for each histogram. Experiments were repeated 3 times and the fluorescence intensities of DXR were expressed in arbitrary units.
Effect of Pgp inhibitor on the internalization of IL13 conjugated liposomes in the glioma cells: About 50000 U251 glioma cells were plated in a small petridish and were exposed to either IL13 conjugated liposomes carrying 20 μM of doxorubicin or the same concentration of free doxorubicin (20 μM) for 2 hours. […]

[2] = molecular target: T1, IL-13Rα2 (Homo sapiens, UniProt Q14627); test: Cytotoxicity neutralization assay with IL-13 and its mutants against cytotoxin IL13-PE38QQR; assay type: cell-based; settings: 100 ng/ml protein; cytotoxin IL13-PE38QQR fixed at 10 ng/ml
T1 sequence (Q14627 27-380): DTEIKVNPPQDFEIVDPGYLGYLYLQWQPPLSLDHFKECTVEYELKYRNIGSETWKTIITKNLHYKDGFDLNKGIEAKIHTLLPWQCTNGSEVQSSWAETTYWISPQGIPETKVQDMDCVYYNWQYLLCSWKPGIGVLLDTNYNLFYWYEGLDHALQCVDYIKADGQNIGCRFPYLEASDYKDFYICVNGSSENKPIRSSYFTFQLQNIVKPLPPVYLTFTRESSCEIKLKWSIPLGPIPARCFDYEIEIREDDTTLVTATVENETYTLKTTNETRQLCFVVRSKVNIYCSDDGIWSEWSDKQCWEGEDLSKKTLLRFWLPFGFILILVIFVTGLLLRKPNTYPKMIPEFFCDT
Protocol: Additionally, position K105 of this region of IL-13 is mutated into a variety of amino acids and the mutants' cytotoxic neutralization potential and binding affinity towards IL-13Rα2 is determined. […] In this titered cytotoxicity neutralization experiment, higher neutralization efficiency against the IL13-PE38QQR cytotoxin, for the mutant IL13.K105R is observed (Madhankumar A. B., Mintz, A., and Debinski, W. (2004) Neoplasia (New York) 6, 15-22). IL13.K105R is able to neutralize the cytotoxicity to 99% at 100 ng/ml concentration when compared with its blocking efficiency at 1000 ng/ml concentration. However, the wild type IL-13 and the mutant IL13.K106R and IL13.R109K have only 86.5%, 86.7% and 80.7% of the cytotoxicity neutralization efficiency with respect to their neutralization efficiency at 1000 ng/ml concentration. […] The high affinity mutant IL13.K105R is used as a ligand to conjugate to liposomes in order to better target the glioma associated IL-13Rα2 receptor.

| Molecule | intracellular doxorubicin fluorescence (flow cytometry curve shift) [1] | cytotoxicity neutralization efficiency with respect to neutralization efficiency at 1000 ng/ml [2] [%] |
| --- | --- | --- |
| COc1cccc2c1C(=O)c1c(O)c3c(c(O)c1C2=O)C[C@@](O)(C(=O)CO)C[C@@H]3O[C@H]1C[C@H](N)[C@H](O)[C@H](C)O1 [free DXR, doxorubicin] | increase in the cell fluorescence |  |
| IL13.K106R: mutant of IL-13 |  | 86.7 |
| wild type IL-13: human cytokine interleukin-13, expressed in E. coli as His-tagged protein |  | 86.5 |
